These results are taken from patent publication US20260166158A1, “HSP90-BINDING CONJUGATES AND FORMULATIONS THEREOF” (Fusion Pharmaceuticals Inc., priority 2019, published 2026).

Data set [1] concerns the target T1, purified N-terminal HSP90a (Homo sapiens, UniProt P07900).
T1 construct: 350 ng of N-terminal HSP90a
Put plainly: HSP90 binding, competitive fluorescence polarization assay. The protocol:
HSP90 binding was determined by a competitive fluorescence polarization assay with purified N-terminal HSP90a. A series of dilutions of the test compounds were prepared with 10% DMSO in assay buffer and 10 μl of the dilution was added to a 100 μl reaction so that the final concentration of DMSO is 1% in all reactions. The reactions were conducted at room temperature for 3 hours in a 100 μl mixture containing assay buffer, 5 nM FITC Labeled Geldanamycin, 350 ng of N-terminal HSP90a, and the test compound. Fluorescence intensity was measured at an excitation of 485 nm and an emission of 530 nm using a Tecan Infinite M1000 microplate reader. Fluorescence intensity is converted to fluorescence polarization using the Tecan Magellan6 software. The fluorescence polarization data were analyzed using the computer software, Graphpad Prism. The fluorescence polarization (FPt) in absence of the compound in each data set was defined as 100% activity. In the absence of protein and the compound, the value of fluorescent polarization (FPb) in each data set was defined as 0% activity. The percent activity in the presence of the compound was calculated according to the following equation: % activity=(FP−FPb)/(FPt−FPb)×100%, where FP=the fluorescence polarization in the presence of the compound. HSP90 binding data are below.

The test system of data set [2] is NCI-H460 tumor-bearing mice (lung cancer). Put plainly: Biodistribution: lutetium accumulation in tumor, plasma and healthy tissues by ICP-MS. The class given is in vivo. The following applies: 0.5 mg/kg lutetium conjugate. The protocol: Lutetium accumulation was measured in tumor, plasma and healthy tissues of NCI-H460 tumor-bearing mice (lung cancer). NCJ-H460 tumor bearing mice were dosed with 0.5 mg/kg of lutetium conjugates. At the time points indicated, mice were sacrificed and tumor, liver, kidneys and plasma were taken. All tissues were analyzed for lutetium content by ICP-MS, and lutetium uptake in % ID/g determined by the following equation: […]
Biodistribution at 24 h and Tumor/Kidney ratio (T/K), Tumor/Liver ratio (T/L), Tumor/Plasma ratio (T/P) are give in the table below.

For the compound `CCNC(=O)c1nnc(-c2cc(C(C)C)c(O)cc2O)n1-c1ccc(CN2CCN(C(=O)CCNC(=O)[C@@H](CCC(=O)N3CCN(Cc4ccc(-n5c(C(=O)NCC)nnc5-c5cc(C(C)C)c(O)cc5O)cc4)CC3)NC(=O)CCNC(=O)[C@@H](CCC(=O)O)NC(=O)[C@@H](CCC(=O)O)NC(=O)[C@@H](CCC(=O)O)NC(=O)COCCOCCNC(=O)CNC(=O)[C@H](CCCCN)NC(=O)CNC(=O)CC[C@H](C(=O)O)N3CCN4CCN5CCN(CC3)CC(=O)[O][Lu]([O]C(=O)C5)[O]C(=O)C4)CC2)cc1` [T9], in data set [1], the Kd was found to be 0.47 nM. In data set [2], the “% ID/g uptake, H460 tumor, 24 h” value worked out at 2.43 % ID/g; the “% ID/g uptake, H460 tumor, 72 h” value worked out at 0.93 % ID/g; the “% ID/g uptake, Kidney, 24 h” value turned out to be 8.15 % ID/g; the “% ID/g uptake, Kidney, 72 h” value was 2.78 % ID/g. Moreover, in data set [2], the “% ID/g uptake, Liver, 24 h” value turned out to be 0.62 % ID/g; the “% ID/g uptake, Liver, 72 h” value turned out to be 0.25 % ID/g; the “% ID/g uptake, Plasma, 24 h” value is 26.50 % ID/g; the “% ID/g uptake, Plasma, 72 h” value came to 1.53 % ID/g.

Take `CCNC(=O)c1nnc(-c2cc(C(C)C)c(O)cc2O)n1-c1ccc(CN2CCN(C(=O)CCNC(=O)[C@@H](CCC(=O)N3CCN(Cc4ccc(-n5c(C(=O)NCC)nnc5-c5cc(C(C)C)c(O)cc5O)cc4)CC3)NC(=O)CCNC(=O)[C@@H](CCC(=O)O)NC(=O)[C@@H](CCC(=O)O)NC(=O)[C@@H](CCC(=O)O)NC(=O)COCCOCCNC(=O)[C@H](Cc3ccccc3)NC(=O)CNC(=O)[C@H](CCCCNC(=O)CC[C@H](C(=O)O)N(CC)CCN3CCN4CCN(C)CC(=O)[O][Lu]([O]C(=O)C4)[O]C(=O)C3)NC(=O)CCCc3ccc(I)cc3)CC2)cc1` [T15]: the Kd in data set [1] was 0.43 nM. In addition, in data set [2], the “% ID/g uptake, H460 tumor, 24 h” value was 2.16 % ID/g; the “% ID/g uptake, H460 tumor, 72 h” value is recorded as 0.70 % ID/g; the “% ID/g uptake, Kidney, 24 h” value was 12.50 % ID/g; the “% ID/g uptake, Kidney, 72 h” value was determined as 4.37 % ID/g. Further, in data set [2], the “% ID/g uptake, Liver, 24 h” value is on record as 1.78 % ID/g; the “% ID/g uptake, Liver, 72 h” value worked out at 1.16 % ID/g; the “% ID/g uptake, Plasma, 24 h” value was 2.79 % ID/g; the “% ID/g uptake, Plasma, 72 h” value is listed as 0.14 % ID/g.

Consider `CCNC(=O)c1nnc(-c2cc(C(C)C)c(O)cc2O)n1-c1ccc(OC2CCN(C(=O)CCNC(=O)[C@@H](CCC(=O)O)NC(=O)[C@@H](CCC(=O)O)NC(=O)[C@@H](CCC(=O)O)NC(=O)COCCOCCNC(=O)[C@H](CCCCNC(=O)CC[C@H](C(=O)O)N3CCN4CCN5CCN(CC3)CC(=O)[O][Lu]([O]C(=O)C5)[O]C(=O)C4)NC(=O)CCCc3ccc(I)cc3)CC2)cc1` [T11], for which the Kd in data set [1] was 0.7 nM. In addition, in data set [2], the “% ID/g uptake, H460 tumor, 24 h” value is listed as 6.37 % ID/g; the “% ID/g uptake, H460 tumor, 72 h” value was 1.74 % ID/g; the “% ID/g uptake, Kidney, 24 h” value is 14.90 % ID/g; the “% ID/g uptake, Kidney, 72 h” value worked out at 5.21 % ID/g. For the same compound, in data set [2], the “% ID/g uptake, Liver, 24 h” value is given as 1.03 % ID/g; the “% ID/g uptake, Liver, 72 h” value was 0.46 % ID/g; the “% ID/g uptake, Plasma, 24 h” value is recorded as 0.51 % ID/g; the “% ID/g uptake, Plasma, 72 h” value turned out to be 0.02 % ID/g.

The compound `CCNC(=O)c1nnc(-c2cc(C(C)C)c(O)cc2O)n1-c1ccc2c(ccn2CCC2CCN(C(=O)CC[C@H](NC(=O)CC[C@H](C(=O)O)N3CCN4CCN5CCN(CC3)CC(=O)[O][Lu]([O]C(=O)C5)[O]C(=O)C4)C(=O)N3CCC(CCn4ccc5cc(-n6c(C(=O)NCC)nnc6-c6cc(C(C)C)c(O)cc6O)ccc54)CC3)CC2)c1` [T10] showed a Kd in data set [1] of 0.77 nM. Further, in data set [2], the “% ID/g uptake, H460 tumor, 24 h” value was found to be 3.91 % ID/g; the “% ID/g uptake, H460 tumor, 72 h” value amounted to 3.18 % ID/g; the “% ID/g uptake, Kidney, 24 h” value turned out to be 14.70 % ID/g; the “% ID/g uptake, Kidney, 72 h” value is 7.74 % ID/g. For the same compound, in data set [2], the “% ID/g uptake, Liver, 24 h” value is listed as 7.28 % ID/g; the “% ID/g uptake, Liver, 72 h” value stood at 4.34 % ID/g; the “% ID/g uptake, Plasma, 24 h” value was 2.29 % ID/g; the “% ID/g uptake, Plasma, 72 h” value was 0.37 % ID/g.

In turn, `CCNC(=O)c1nnc(-c2cc(C(C)C)c(O)cc2O)n1-c1ccc(CN2CCN(C(=O)CCNC(=O)[C@@H](CCC(=O)N3CCN(Cc4ccc(-n5c(C(=O)NCC)nnc5-c5cc(C(C)C)c(O)cc5O)cc4)CC3)NC(=O)CCNC(=O)[C@@H](CCC(=O)O)NC(=O)[C@@H](CCC(=O)O)NC(=O)[C@@H](CCC(=O)O)NC(=O)COCCOCCNC(=O)[C@H](Cc3ccccc3)NC(=O)CNC(=O)CNC(=O)CC[C@H](C(=O)O)N3CCN4CCN5CCN(CC3)CC(=O)[O][Lu]([O]C(=O)C5)[O]C(=O)C4)CC2)cc1` [T8] returned a Kd in data set [1] of 0.48 nM. Further, in data set [2], the “% ID/g uptake, H460 tumor, 24 h” value was 1.00 % ID/g; the “% ID/g uptake, H460 tumor, 72 h” value was 0.44 % ID/g; the “% ID/g uptake, Kidney, 24 h” value was 3.24 % ID/g; the “% ID/g uptake, Kidney, 72 h” value is recorded as 0.84 % ID/g. For the same compound, in data set [2], the “% ID/g uptake, Liver, 24 h” value was determined as 0.30 % ID/g; the “% ID/g uptake, Liver, 72 h” value came to 0.07 % ID/g; the “% ID/g uptake, Plasma, 24 h” value was 0.17 % ID/g; the “% ID/g uptake, Plasma, 72 h” value is 0.00 % ID/g.

In turn, `CCNC(=O)c1nnc(-c2cc(C(C)C)c(O)cc2O)n1-c1ccc(CN2CCN(C(=O)CCNC(=O)[C@@H](CCC(=O)N3CCN(Cc4ccc(-n5c(C(=O)NCC)nnc5-c5cc(C(C)C)c(O)cc5O)cc4)CC3)NC(=O)CCNC(=O)[C@@H](CCC(=O)O)NC(=O)[C@@H](CCC(=O)O)NC(=O)[C@@H](CCC(=O)O)NC(=O)COCCOCCNC(=O)CC[C@H](C(=O)O)N3CCN4CCN5CCN(CC3)CC(=O)[O][Lu]([O]C(=O)C5)[O]C(=O)C4)CC2)cc1` [T4] showed a Kd in data set [1] of 0.45 nM. In addition, in data set [2], the “% ID/g uptake, H460 tumor, 24 h” value turned out to be 3.06 % ID/g; the “% ID/g uptake, H460 tumor, 72 h” value was determined as 2.19 % ID/g; the “% ID/g uptake, Kidney, 24 h” value turned out to be 4.86 % ID/g; the “% ID/g uptake, Kidney, 72 h” value worked out at 2.28 % ID/g. Also, in data set [2], the “% ID/g uptake, Liver, 24 h” value was found to be 0.59 % ID/g; the “% ID/g uptake, Liver, 72 h” value is 0.62 % ID/g; the “% ID/g uptake, Plasma, 24 h” value was found to be 0.21 % ID/g; the “% ID/g uptake, Plasma, 72 h” value worked out at 0.09 % ID/g.

As to `CCNC(=O)c1nnc(-c2cc(C(C)C)c(O)cc2O)n1-c1ccc(OC2CCN(C(=O)CCNC(=O)[C@@H](CCC(=O)N3CCC(Oc4ccc(-n5c(C(=O)NCC)nnc5-c5cc(C(C)C)c(O)cc5O)cc4)CC3)NC(=O)CC[C@H](C(=O)O)N3CCN4CCN5CCN(CC3)CC(=O)[O][Lu]([O]C(=O)C5)[O]C(=O)C4)CC2)cc1` [T6], in data set [1], the Kd came out at 0.45 nM. In data set [2], the “% ID/g uptake, H460 tumor, 24 h” value amounted to 7.00 % ID/g; the “% ID/g uptake, H460 tumor, 72 h” value is given as 4.52 % ID/g; the “% ID/g uptake, Kidney, 24 h” value is on record as 6.77 % ID/g; the “% ID/g uptake, Kidney, 72 h” value is given as 2.57 % ID/g. Further, in data set [2], the “% ID/g uptake, Liver, 24 h” value turned out to be 10.70 % ID/g; the “% ID/g uptake, Liver, 72 h” value stood at 8.90 % ID/g; the “% ID/g uptake, Plasma, 24 h” value stood at 1.65 % ID/g; the “% ID/g uptake, Plasma, 72 h” value worked out at 1.89 % ID/g.

The term Kd denotes the free concentration of one partner at which half of the binding sites on the other are occupied at equilibrium, for simple one-to-one binding. A higher Kd goes with a looser complex.
